Experimental data reported in publication PMC10786891, “Massively parallel profiling of RNA-targeting CRISPR-Cas13d”.
Substitutions are numbered along the chain they refer to. Numbers in names are those of the source.

T1: EsCas13d, nuclease-dead (Eubacterium siraeum, UniProt B0MS50, R295A;H300A;R849A;H854A)
T1 sequence: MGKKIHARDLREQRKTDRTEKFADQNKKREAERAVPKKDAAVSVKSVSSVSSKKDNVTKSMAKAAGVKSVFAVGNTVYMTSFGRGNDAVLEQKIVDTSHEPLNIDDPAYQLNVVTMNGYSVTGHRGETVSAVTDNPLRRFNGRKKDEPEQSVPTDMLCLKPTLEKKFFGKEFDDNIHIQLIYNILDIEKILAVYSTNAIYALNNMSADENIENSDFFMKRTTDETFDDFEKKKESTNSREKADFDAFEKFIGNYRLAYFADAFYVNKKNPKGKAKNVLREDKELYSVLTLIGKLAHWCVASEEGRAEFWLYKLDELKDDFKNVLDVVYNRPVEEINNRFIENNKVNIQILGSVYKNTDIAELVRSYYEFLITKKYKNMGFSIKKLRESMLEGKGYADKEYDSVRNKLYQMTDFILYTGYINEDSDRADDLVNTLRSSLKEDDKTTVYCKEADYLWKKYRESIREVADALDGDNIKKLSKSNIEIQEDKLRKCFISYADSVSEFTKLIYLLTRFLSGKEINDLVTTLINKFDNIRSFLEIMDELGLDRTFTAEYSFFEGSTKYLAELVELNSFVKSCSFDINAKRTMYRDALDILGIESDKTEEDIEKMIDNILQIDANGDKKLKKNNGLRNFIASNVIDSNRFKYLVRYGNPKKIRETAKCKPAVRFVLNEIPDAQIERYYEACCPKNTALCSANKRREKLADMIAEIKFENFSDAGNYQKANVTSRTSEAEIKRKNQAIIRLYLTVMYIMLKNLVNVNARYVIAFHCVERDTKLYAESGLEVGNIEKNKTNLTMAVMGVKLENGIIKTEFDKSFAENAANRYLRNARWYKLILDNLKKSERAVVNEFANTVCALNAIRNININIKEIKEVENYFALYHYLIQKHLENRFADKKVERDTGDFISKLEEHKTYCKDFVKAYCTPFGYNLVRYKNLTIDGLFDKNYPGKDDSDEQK

B1: target 1 insA 3' of 2,insC 3' of 1 (mixed)
RNA 1: CACCCGUGCAAAAAUGCAGGGGUCUAAAACUGAGCGGAUAACCUCUCUAUGG
RNA 2: GGGAAUGGAUCCACAUCUACGAAUUCGUACCAUAGAGAGGUUAUCCGCUCAACCCGAGAUCGGAAGAGCACACGU
B2: target 1 insG 3' of 16,insG 3' of 7 (mixed)
RNA 1: B1 RNA 1
RNA 2: GGGAAUGGAUCCACAUCUACGAAUUCGUACCAUAGAGGAGGUUAUCGCGCUCACCGAGAUCGGAAGAGCACACGU
B3: target 1 insA 3' of 2,insG 3' of 1 (mixed)
RNA 1: B1 RNA 1
RNA 2: B1 RNA 2 with C53G
B4: target 1 C6G,G15U (mixed)
RNA 1: B1 RNA 1
RNA 2: GGGAAUGGAUCCACAUCUACGAAUUCGUACCAUAGAUAGGUUAUCGGCUCACCGAGAUCGGAAGAGCACACGU
B5: target 1 A1G,G12A (mixed)
RNA 1: B1 RNA 1
RNA 2: B4 RNA 2 with U37G, G40A, G46C, A51G
B6: target 1 C4A,C21U (mixed)
RNA 1: B1 RNA 1
RNA 2: B4 RNA 2 with C31U, U37G, G46C, C48A
B7: target 1 A9G,G13A (mixed)
RNA 1: B1 RNA 1
RNA 2: B4 RNA 2 with U37G, G39A, A43G, G46C
B8: target 1 C7G,C22G (mixed)
RNA 1: B1 RNA 1
RNA 2: B4 RNA 2 with C30G, U37G, C45G, G46C
B9: target 1 C7A,U19G (mixed)
RNA 1: B1 RNA 1
RNA 2: B4 RNA 2 with U33G, U37G, C45A, G46C
B10: target 1 insA 3' of 2,insA 3' of 2 (mixed)
RNA 1: B1 RNA 1
RNA 2: B1 RNA 2 with C53A
B11: target 1 G5U,U10G (mixed)
RNA 1: B1 RNA 1
RNA 2: B4 RNA 2 with U37G, U42G, G46C, G47U
B12: target 1 insG 3' of 18,insA 3' of 7 (mixed)
RNA 1: B1 RNA 1
RNA 2: B2 RNA 2 with A36G, G37A, G47A
B13: target 1 G12A (mixed)
RNA 1: B1 RNA 1
RNA 2: B4 RNA 2 with U37G, G40A, G46C
B14: target 1 insG 3' of 10,insA 3' of 6 (mixed)
RNA 1: B1 RNA 1
RNA 2: B2 RNA 2 with G38A, A39G, G41U, U43G, G47C, C48A
B15: target 1 C4U,U11G (mixed)
RNA 1: B1 RNA 1
RNA 2: B4 RNA 2 with U37G, U41G, G46C, C48U
B16: target 1 insG 3' of 8,insU 3' of 6 (mixed)
RNA 1: B1 RNA 1
RNA 2: B1 RNA 2 with C45G, G47C, C48U, U49G, A51U, A52C, C53A
B17: target 1 complement block 5-11 (mixed)
RNA 1: B1 RNA 1
RNA 2: B4 RNA 2 with U37G, U41A, U42A, A43U, U44A, C45G, G47C
B18: target 1 insC 3' of 3,insC 3' of 3 (mixed)
RNA 1: B1 RNA 1
RNA 2: B1 RNA 2 with A51C, A52C, C53A
B19: target 1 insU 3' of 9,insU 3' of 9 (mixed)
RNA 1: B1 RNA 1
RNA 2: B1 RNA 2 with C45U, C46U, G47C, U49G, A51U, A52C, C53A
B20: target 1 G12A,U19A (mixed)
RNA 1: B1 RNA 1
RNA 2: B4 RNA 2 with U33A, U37G, G40A, G46C
B21: target 1 A1U,G12A (mixed)
RNA 1: B1 RNA 1
RNA 2: B4 RNA 2 with U37G, G40A, G46C, A51U
B22: target 1 U3G,G12C (mixed)
RNA 1: B1 RNA 1
RNA 2: B4 RNA 2 with U37G, G40C, G46C, U49G
B23: target 1 insU 3' of 20,insA 3' of 10 (mixed)
RNA 1: B1 RNA 1
RNA 2: B2 RNA 2 with A34U, G35A, A36G, G37A, U45A, C46U, G47C
B24: target 1 A1U,U19C (mixed)
RNA 1: B1 RNA 1
RNA 2: B4 RNA 2 with U33C, U37G, G46C, A51U
B25: target 1 insC 3' of 14,insU 3' of 12 (mixed)
RNA 1: B1 RNA 1
RNA 2: B2 RNA 2 with G38A, A39C, A44U, U45A, C46U, G47C
B26: target 1 insG 3' of 14,insG 3' of 7 (mixed)
RNA 1: B1 RNA 1
RNA 2: B2 RNA 2 with G38A, A39G
B27: target 1 G5C,U11C (mixed)
RNA 1: B1 RNA 1
RNA 2: B4 RNA 2 with U37G, U41C, G46C, G47C
B28: target 1 insA 3' of 2,insU 3' of 1 (mixed)
RNA 1: B1 RNA 1
RNA 2: B1 RNA 2 with C53U
B29: target 1 insU 3' of 15,insC 3' of 15 (mixed)
RNA 1: B1 RNA 1
RNA 2: B2 RNA 2 with G38U, A39C, G40A, U42G, A44U, U45A, C46U, G47C
B30: target 1 insA 3' of 13,insG 3' of 11 (mixed)
RNA 1: B1 RNA 1
RNA 2: B2 RNA 2 with G38A, A39G, G40A, U43G, A44U, U45A, C46U, G47C
B31: target 1 C4A,A9G (mixed)
RNA 1: B1 RNA 1
RNA 2: B4 RNA 2 with U37G, A43G, G46C, C48A
B32: target 1 C7G,A18C (mixed)
RNA 1: B1 RNA 1
RNA 2: B4 RNA 2 with A34C, U37G, C45G, G46C
B33: target 1 C6U,U10G (mixed)
RNA 1: B1 RNA 1
RNA 2: B4 RNA 2 with U37G, U42G, G46U
B34: target 1 insC 3' of 17,insA 3' of 8 (mixed)
RNA 1: B1 RNA 1
RNA 2: B2 RNA 2 with A36C, G37A, C46A, G47C

molecular target: T1, EsCas13d, nuclease-dead; test: crRNA (strand 1, pre-loaded); Mg2+; 40 mM Tris-HCl pH 7.5, 150 mM NaCl, 6 mM MgCl2, 1 mM DTT, 0.1% Tween-20, 0.2 mg/ml BSA; 25 C; 10 min per concentration, then washed; conditions: tags: His6-TwinStrep-SUMO cleaved; N-terminal SNAP kept (SNAP-Surface 488); label: 3' end held by stalled T7 RNA polymerase

Row | Binder | Kd [nM]
1 | B1 | 8.5 ± 0.6
2 | B2 | 16.5 ± 1.7
3 | B3 | 8.6 ± 0.6
4 | B4 | 36 ± 5
5 | B5 | 5.9 ± 0.5
6 | B6 | 4.4 ± 0.7
7 | B7 | 8.4 ± 0.4
8 | B8 | 38 ± 6
9 | B9 | 55 ± 6
10 | B10 | 9.6 ± 0.4
11 | B11 | 57 ± 5
12 | B12 | 43 ± 4
13 | B13 | 5.5 ± 0.4
14 | B14 | 41 ± 6
15 | B15 | 21 ± 4
16 | B16 | 16.5 ± 0.6
17 | B17 | 19.2 ± 0.6

Row | Binder | Kd [nM]
18 | B18 | 43 ± 15
19 | B19 | 18.8 ± 1
20 | B20 | 51 ± 11
21 | B21 | 5.2 ± 0.5
22 | B22 | 8.1 ± 0.9
23 | B23 | 19.4 ± 1.1
24 | B24 | 22.2 ± 1.6
25 | B25 | 43 ± 9
26 | B26 | 6.8 ± 0.28
27 | B27 | 16.8 ± 1.1
28 | B28 | 10.5 ± 0.6
29 | B29 | 28.4 ± 3.2
30 | B30 | 13.2 ± 0.8
31 | B31 | 3.18 ± 0.24
32 | B32 | 81 ± 11
33 | B33 | 15.7 ± 1.1
34 | B34 | 52 ± 7
